According to article PMC10680758:

Target: T1, eIF4G (unlabeled) (Saccharomyces cerevisiae, UniProt P39935 1-952)
T1 sequence: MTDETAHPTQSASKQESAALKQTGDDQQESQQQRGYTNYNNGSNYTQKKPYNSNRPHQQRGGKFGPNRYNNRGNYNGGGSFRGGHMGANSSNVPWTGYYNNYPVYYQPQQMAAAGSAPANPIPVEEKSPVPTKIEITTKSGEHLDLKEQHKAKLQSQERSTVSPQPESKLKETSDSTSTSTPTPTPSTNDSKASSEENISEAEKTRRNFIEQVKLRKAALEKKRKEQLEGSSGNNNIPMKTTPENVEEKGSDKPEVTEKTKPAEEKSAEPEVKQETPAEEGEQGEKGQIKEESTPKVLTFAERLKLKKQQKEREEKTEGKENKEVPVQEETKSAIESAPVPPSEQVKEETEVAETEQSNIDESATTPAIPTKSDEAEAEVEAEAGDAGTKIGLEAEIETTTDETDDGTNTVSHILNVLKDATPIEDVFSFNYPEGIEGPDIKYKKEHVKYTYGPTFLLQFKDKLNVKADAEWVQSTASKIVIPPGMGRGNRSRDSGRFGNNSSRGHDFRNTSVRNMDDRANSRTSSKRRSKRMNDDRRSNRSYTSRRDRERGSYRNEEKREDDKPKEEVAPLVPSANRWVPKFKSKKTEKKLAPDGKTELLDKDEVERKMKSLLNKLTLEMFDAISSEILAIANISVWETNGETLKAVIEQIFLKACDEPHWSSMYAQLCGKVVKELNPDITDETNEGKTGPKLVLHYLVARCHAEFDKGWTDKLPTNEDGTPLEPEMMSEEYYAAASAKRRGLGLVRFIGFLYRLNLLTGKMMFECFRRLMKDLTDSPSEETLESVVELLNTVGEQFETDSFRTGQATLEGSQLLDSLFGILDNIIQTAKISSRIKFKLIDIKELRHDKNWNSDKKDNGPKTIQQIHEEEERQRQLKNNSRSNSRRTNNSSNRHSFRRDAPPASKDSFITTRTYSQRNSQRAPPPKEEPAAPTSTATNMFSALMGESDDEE
Assay: fluorescence anisotropy

B1: rpl41a 51mer-FAM (ssRNA)
RNA: GGAGACCACAUCGAUUCAAUCGAAAUGAGAGCCAAGUGGAGAAAGAAGAGA
  binding result: binds
